Test results taken from IntAct's records for PubMed 21799911.

B1: E3 ubiquitin-protein ligase RNF146 (Homo sapiens), Q9NTX7 (parent)
chain: MMAGCGEIDHSINMLPTNRKANESCSNTAPSLTVPECAICLQTCVHPVSLPCKHVFCYLCVKGASWLGKRCALCRQEIPEDFLDKPTLLSPEELKAASRGNGEYAWYYEGRNGWWQYDERTSRELEDAFSKGKKNTEMLIAGFLYVADLENMVQYRRNEHGRRRKIKRDIIDIPKKGVAGLRLDCDANTVNLARESSADGADSVSAQSGASVQPLVSSVRPLTSVDGQLTSPATPSPDASTSLEDSFAHLQLSGDNTAERSHRGEGEEDHESPSSGRVPAPDTSIEETESDASSDSEDVSAVVAQHSLTQQRLLVSNANQTVPDRSDRSGTDRSVAGGGTVSVSVRSRRPDGQCTVTEV

Variants of: B1
Conditions: with parp1_human PARP1, P09874
Sequence of parp1_human PARP1, P09874 (P09874 whole entry): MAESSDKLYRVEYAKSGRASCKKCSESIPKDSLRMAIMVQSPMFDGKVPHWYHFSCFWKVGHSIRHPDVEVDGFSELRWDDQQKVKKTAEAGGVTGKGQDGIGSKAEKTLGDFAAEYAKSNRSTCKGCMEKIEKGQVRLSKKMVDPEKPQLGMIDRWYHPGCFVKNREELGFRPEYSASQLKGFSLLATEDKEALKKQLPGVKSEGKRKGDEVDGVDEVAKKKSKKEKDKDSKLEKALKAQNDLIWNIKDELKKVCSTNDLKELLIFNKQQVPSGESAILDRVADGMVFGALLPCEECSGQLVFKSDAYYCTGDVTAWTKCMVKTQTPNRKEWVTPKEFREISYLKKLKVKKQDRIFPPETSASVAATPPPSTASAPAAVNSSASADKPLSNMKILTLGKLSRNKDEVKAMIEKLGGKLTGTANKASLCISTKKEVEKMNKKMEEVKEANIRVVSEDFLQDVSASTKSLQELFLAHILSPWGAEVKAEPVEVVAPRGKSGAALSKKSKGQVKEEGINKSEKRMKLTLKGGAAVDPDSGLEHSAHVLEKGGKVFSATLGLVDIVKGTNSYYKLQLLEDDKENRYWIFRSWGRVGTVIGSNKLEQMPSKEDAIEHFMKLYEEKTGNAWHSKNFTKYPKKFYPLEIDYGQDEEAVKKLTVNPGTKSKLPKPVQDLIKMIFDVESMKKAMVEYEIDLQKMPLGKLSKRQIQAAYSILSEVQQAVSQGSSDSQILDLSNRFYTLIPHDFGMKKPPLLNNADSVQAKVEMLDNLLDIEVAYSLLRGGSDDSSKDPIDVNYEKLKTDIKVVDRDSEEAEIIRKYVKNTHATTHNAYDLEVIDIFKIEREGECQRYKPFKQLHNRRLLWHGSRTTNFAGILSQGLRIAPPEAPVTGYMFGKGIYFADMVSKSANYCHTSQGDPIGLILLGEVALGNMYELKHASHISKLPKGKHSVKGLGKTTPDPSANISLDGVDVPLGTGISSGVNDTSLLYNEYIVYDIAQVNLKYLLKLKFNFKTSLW

effect of a mutation on the interaction | Variant
with no effect | MMAGCGEIDHSINMLPTNRKANESCSNTAPSLTVPECAICLQTCVHPVSLPCKAVFCYLCVKGASWLGKRCALCRQEIPEDFLDKPTLLSPEELKAASRGNGEYAWYYEGRNGWWQYDERTSRELEDAFSKGKKNTEMLIAGFLYVADLENMVQYRRNEHGRRRKIKRDIIDIPKKGVAGLRLDCDANTVNLARESSADGADSVSAQSGASVQPLVSSVRPLTSVDGQLTSPATPSPDASTSLEDSFAHLQLSGDNTAERSHRGEGEEDHESPSSGRVPAPDTSIEETESDASSDSEDVSAVVAQHSLTQQRLLVSNANQTVPDRSDRSGTDRSVAGGGTVSVSVRSRRPDGQCTVTEV [H54A]
